Drawing on publication PMC8423076, this text covers stoichiometry N for one substance.

The assay has as its target SARS-CoV-2 receptor-binding domain (RBD) homodimer (SARS-CoV-2) (UniProt P0DTC2). The assay can be described thus: reducing and non-reducing SDS-PAGE.

Usually stoichiometry N stands for the number of molecules, sites or subunits per partner or assembly. In the case of “SARS-CoV-2 receptor-binding domain (RBD) homodimer (from UniProt P0DTC2 319-541) (domain or fragment)”, the stoichiometry N worked out at 2.
